Consider 1 substance from patent publication US20210338733A1.

The assay addresses CD19 on CD19 positive target cell lines (UniProt P15391). In words: cell-based or functional assay.

Chain of CD19 on CD19 positive target cell lines (P15391 20-556 limits assumed): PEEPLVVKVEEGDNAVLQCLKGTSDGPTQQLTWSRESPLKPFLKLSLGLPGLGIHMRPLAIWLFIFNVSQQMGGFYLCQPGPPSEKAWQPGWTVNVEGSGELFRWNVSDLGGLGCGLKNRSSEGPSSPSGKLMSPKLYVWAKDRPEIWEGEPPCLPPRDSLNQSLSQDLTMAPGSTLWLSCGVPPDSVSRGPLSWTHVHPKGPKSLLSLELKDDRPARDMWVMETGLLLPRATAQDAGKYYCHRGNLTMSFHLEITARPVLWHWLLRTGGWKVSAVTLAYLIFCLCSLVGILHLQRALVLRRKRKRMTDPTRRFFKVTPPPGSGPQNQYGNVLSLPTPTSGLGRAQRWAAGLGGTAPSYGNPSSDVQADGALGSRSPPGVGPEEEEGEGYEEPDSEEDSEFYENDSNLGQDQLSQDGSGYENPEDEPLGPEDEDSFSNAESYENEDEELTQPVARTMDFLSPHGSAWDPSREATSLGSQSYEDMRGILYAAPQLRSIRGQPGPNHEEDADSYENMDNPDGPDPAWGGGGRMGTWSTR

For the substance “CD19 CAR as expressed on CART-19 cells (anti-CD19 FMC63 scFv, human CD8α hinge and transmembrane, human 4-1BB and CD3ζ) (receptor)”, the CD40L expression by CD4+ CAR T cells (flow cytometry, 24 hours of coincubation) (fold of the upregulation by CART-TnMUC1) came to 2.
